The target of data set [1] is T1, NF90 (UniProt Q12906-2 1-702).
T1 sequence: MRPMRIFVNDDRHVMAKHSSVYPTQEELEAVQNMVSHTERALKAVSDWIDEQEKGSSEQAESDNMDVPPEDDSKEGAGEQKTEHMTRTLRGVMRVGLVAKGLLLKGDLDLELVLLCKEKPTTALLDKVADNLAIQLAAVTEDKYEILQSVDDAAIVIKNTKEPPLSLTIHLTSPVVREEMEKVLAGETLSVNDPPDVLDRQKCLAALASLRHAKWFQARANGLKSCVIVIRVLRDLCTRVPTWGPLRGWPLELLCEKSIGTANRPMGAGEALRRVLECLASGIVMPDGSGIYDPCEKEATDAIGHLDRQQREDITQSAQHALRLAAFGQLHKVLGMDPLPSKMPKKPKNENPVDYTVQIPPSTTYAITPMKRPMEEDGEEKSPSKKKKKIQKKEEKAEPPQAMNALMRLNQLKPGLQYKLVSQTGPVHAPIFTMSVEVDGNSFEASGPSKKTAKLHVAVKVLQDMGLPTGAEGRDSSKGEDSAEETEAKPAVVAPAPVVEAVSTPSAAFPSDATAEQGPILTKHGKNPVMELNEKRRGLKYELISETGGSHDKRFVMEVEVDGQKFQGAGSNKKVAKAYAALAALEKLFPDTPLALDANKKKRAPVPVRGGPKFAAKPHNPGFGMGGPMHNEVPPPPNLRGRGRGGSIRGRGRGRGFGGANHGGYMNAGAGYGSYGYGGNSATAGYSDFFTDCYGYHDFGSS
The data set is described as follows: EMSA; RNA EMSA as in ref 15; buffer, salt, pH and temperature not given; at least three replicates. The conditions noted are these: protein: recombinant; label: radiolabel; hairpin. In general terms: In EMSA bound probe runs differently from free probe, usually more slowly.

In data set [2] the target is T1, NF90. The data set is described as follows: EMSA; enhanced vs WT; band intensities only in figure; RNA EMSA as in ref 15; buffer, salt, pH and temperature not given; at least three replicates. The conditions noted are these: protein: recombinant; label: radiolabel; hairpin.

B1: pri-miR-186 WT (structured_RNA)
RNA: ACAGAACACCCAUCAUAUUCUUCCCAAACAUUUUUUCAUUGCUUGUAACUUUCCAAAGAAUUCUCCUUUUGGGCUUUCUGGUUUUAUUUUAAGCCCAAAGGUGAAUUUUUUGGGAAGUUUGAGCUAAAUUCCUUCAACCAAAAUAUACAAGUGAAGAAAAAAAAUUUGUAUUUAAACAUUUGCACAUUUACUUCUACCUGAAGCAUGUGAAUGUCAAC
Take B1: the binding result with NF90 [1] is “binds”.

B2: pri-miR-200a mutant #1 (structured_RNA)
RNA: CUGGCUGCUCACCGCUCCGGUUCUUCCCUGGGCUUCCACAGCAGCCCCUGCCUGCCUGGCGGGACCCCACGUCCCUCCCGGGCCCCUGUGAGCAUCUUACCGGACAGUGCUGGAUUUCCCAGCCUGUCUGGUAACGAUGUUCAAAGGUGACCCGCCGCUCGCCGGGGACACCACCGAGGCACAUC
Consider B2, for which the binding result in the data set with NF90 [2] is given as “binds”.

B3: pri-miR-3173 WT (structured_RNA)
RNA: CAUUGGAGGUCUAGGGCUUAUUUUCCAGAUAGAAUUGAGUCUUUGUUGGUCUUGGGCCAGCUUCCCUGCCCUGCCUGUUUUCUCCUUUGUGAUUUUAUGAGAACAAAGGAGGAAAUAGGCAGGCCAGGGAAACGAUCUCUCUCCCUCUCUUGUGCCGAGGAAGAACU
Consider B3, for which the binding result in the data set with NF90 [1] is listed as “binds”.
